The test has as its target small hepatitis delta antigen with C-terminal His6-tag (SHDAg-His6), native preparation (hepatitis D virus genotype 1). The experiment in a line: SEC.

Where “and” joins values, the source holds several entries; their conditions need not be identical. Equal entries are not always repeated.

As a reminder, the stoichiometry N is a count of units in the complex or per binding partner. As to “small hepatitis delta antigen with C-terminal His6-tag (SHDAg-His6), native preparation (natural protein)”, the stoichiometry N was 4 and 8.

For the origin of these results see publication PMC12474247.
